Assay results taken from article PMC3223204, “Implantation Serine Proteinase 1 Exhibits Mixed Substrate Specificity that Silences Signaling via Proteinase-Activated Receptors” (PLoS ONE, 2011).
No end group written: not given here.

Biological target: T1, purified recombinant ISP1 (Mus musculus, UniProt Q924N9)
T1 construct: Myc (C); His6 (C); made in house; host or cells: Pichia pastoris SMD1168
T1 sequence (Q924N9 31-274 limits assumed): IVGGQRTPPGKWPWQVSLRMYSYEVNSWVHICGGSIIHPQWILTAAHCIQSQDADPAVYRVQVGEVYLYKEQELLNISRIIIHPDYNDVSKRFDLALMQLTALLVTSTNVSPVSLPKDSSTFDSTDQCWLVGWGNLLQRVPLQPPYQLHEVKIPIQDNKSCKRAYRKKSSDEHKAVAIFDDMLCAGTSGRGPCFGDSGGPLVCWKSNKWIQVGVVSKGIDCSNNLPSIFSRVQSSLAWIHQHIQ
Experiment: In vitro cleavage of synthetic peptides by ISP1 (HPLC, MALDI-TOF)
Assay type: biochemical
Details: for Cleavage of synthetic peptide by ISP1: 37°C, up to overnight, HPLC; for ISP1 cleavage site in synthetic peptide: MALDI-TOF / amino acid analysis / ES-MS
Description: Synthetic peptides (1 mg/ml) diluted in 25 mM Tris.Cl (pH 7.8) were incubated with 2.0 units of purified recombinant ISP1 (total volume of reaction mixture: 0.5 ml) at 37°C overnight. The reaction was terminated by the addition of 0.1% trifluoroacetic acid and the mixture was separated using HPLC with an acetonitrile gradient in 0.1% v/v trifluoroacetic acid. The positions of the hydrolysis products monitored by ultraviolet absorption (E215) were compared to the elution position of the intact peptide. The masses of the individual peaks (E215) were determined by MALDI-TOF mass spectroscopy and were used to deduce the predicted amino acid sequences, based on the parent peptide sequence (amino acids are abbreviated by their one-letter codes, e.g., A = alanine, R = arginine). Except where indicated, all chemical reagents were from VWR International (Mississauga, ON, Canada).
The rat PAR2 sequence representing the cleavage/activation domain (^30 GPNSKGR/ SLIGRLDT ^45P: tethered ligand sequence, underlined), the 27-mer synthetic sequence derived from the N-terminal residues […] of rat PAR2 (I^48 […] ^74) and a 17-mer synthetic peptide sequence derived from extracellular loop 2 of rat PAR2 (V^229 LPEEVLVGDMFSYFLS ^245) were selected for the proteolysis studies. […] The 17-mer ^229–245PAR2 sequence is the potential binding site of the activating peptide. […] These peptides at a concentration of 100 µM were incubated with implantation serine proteinase 1 for varying times up to overnight at 37°C. The incubation buffers were identical to the buffers used for the measurements of enzymatic activities using AMC-substituted peptide substrates. Reactions were terminated either by rapid freezing in liquid nitrogen or by the addition to the proteolysis sample of 2 volumes of a “stop solution” comprising 50% acetonitrile and 0.1% trifluoroacetic acid in water. Samples were either subjected immediately to HPLC analysis, with collection of the E215 peak fractions, or were stored at −80°C for further processing. The cleavage products in peaks of absorption resolved by HPLC were quantified (E215), collected and their identity was established by mass spectral MALDI analysis. Some of the peaks recovered from the HPLC columns, but not ascertained by mass spectral analysis (MALDI-TOF), were identified by total amino acid analysis. Analyses were done at the Southern Alberta Mass Spectrometry Facility at the University of Calgary, Faculty of Medicine (Calgary, Alberta, Canada).

Row | Cleavage of synthetic peptide by ISP1 | Substance | ISP1 cleavage site in synthetic peptide
1 | not cleaved | cleavage/activation sequence of PAR2: sequence representing the cleavage/activation site of rat PAR2 (30 GPNSKGR/ SLIGRLDT 45P) (GPNSKGRSLIGRLDTP; UniProt Q63645 30-45, looked up, fragment) | –
2 | cleaved by ISP1 | RRFYIQ-NH2 | –
3 | successfully cleaved | ITGKGAPVEPGFSVDEFSASVLTGKLT-NH2 [27 mer peptide] | between an alanine (P1 sub site) residue and a serine (P1′ sub site) residue

Row | Substance | Cleavage of synthetic peptide by ISP1 | ISP1 cleavage site in synthetic peptide
4 | VLPEEVLVGDMFSYFLS [17-mer synthetic peptide, derived from the extracellular loop 2 domain of rat PAR2] | successfully cleaved | between a tyrosine (P1 sub site) residue and a phenylalanine (P1′ sub site) residue; a phenylalanine (P1 sub site) and a leucine (P1′ sub site) residue; a leucine (P1 sub site) and a serine (P1′ sub site) residue
